The target of one assay is T1, Human Activin A Fc (human, UniProt P03970 309-424 (pig entry)).
T1 construct: also called human Activin A-Fc fusion; human Activin A-Fc antigen; not shown: Fc part
T1 sequence: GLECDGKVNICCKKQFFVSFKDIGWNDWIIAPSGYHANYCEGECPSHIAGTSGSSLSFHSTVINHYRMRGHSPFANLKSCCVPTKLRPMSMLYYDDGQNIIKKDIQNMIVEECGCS
The assay is described as follows: Octet BLI, IgG, avid. How it is done:
ForteBio affinity measurements were performed on an Octet HTX generally as previously described (see, e.g., Estep et al, Mabs 5(2), 270-278 (2013)). Briefly, ForteBio affinity measurements were performed by loading IgGs on-line onto AHC sensors. Sensors were equilibrated off-line in assay buffer for 30 min and then monitored on-line for 60 seconds for baseline establishment. Sensors with loaded IgGs were exposed to 100 nM antigen for 3 minutes, and afterwards were transferred to assay buffer for 3 min for off-rate measurement. All kinetics were analyzed using the 1:1 binding model.
Binding affinity and epitope binning assays were performed with a ForteBio instrument as described herein.

Assay [1] has as its target T2, Activin B (UniProt P09529 293-407).
T2 sequence (looked up): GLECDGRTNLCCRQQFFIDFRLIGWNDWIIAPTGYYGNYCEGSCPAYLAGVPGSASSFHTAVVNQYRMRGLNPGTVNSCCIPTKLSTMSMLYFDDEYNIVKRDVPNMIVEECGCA
The assay is described as follows: cell-based or functional assay.

Assay [2] deals with T2, Activin B. The assay is described as follows: Octet BLI, IgG, avid.
The next assay deals with Human GDF11 (human, UniProt O95390 299-407). The assay is described as follows: Octet BLI, IgG, avid.
Human GDF11, sequence (O95390 299-407 limits assumed): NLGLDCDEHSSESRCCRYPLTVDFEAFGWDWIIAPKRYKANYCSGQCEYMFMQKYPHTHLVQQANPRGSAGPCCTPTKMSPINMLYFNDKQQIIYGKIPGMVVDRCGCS
In another assay the target is T3, GDF15 Fc (UniProt Q99988 197-308, limits assumed).
T3 construct: not shown: Fc part
T3 sequence (looked up): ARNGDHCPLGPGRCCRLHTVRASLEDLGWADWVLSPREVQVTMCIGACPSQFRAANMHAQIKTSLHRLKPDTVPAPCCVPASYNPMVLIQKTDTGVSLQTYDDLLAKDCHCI
The assay is described as follows: Octet BLI, IgG, avid. On the technique in general: In BLI a coated tip is dipped into the sample, and binding shifts an interference pattern.

The target of another assay is T4, Human GDNF (human, UniProt P39905 78-211).
T4 sequence (looked up): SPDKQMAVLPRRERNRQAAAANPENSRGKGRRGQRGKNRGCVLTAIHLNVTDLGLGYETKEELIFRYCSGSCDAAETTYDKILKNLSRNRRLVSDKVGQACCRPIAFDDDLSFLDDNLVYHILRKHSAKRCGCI
The assay is described as follows: Octet BLI, IgG, avid.

For the next assay, the target named is T5, BMP9 (UniProt Q9UK05 320-429).
T5 sequence (looked up): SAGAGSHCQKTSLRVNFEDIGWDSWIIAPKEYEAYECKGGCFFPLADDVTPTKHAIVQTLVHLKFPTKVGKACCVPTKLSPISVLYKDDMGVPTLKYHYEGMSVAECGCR
The assay is described as follows: Octet BLI, IgG, avid.

Another assay deals with Human GDF8 (human, UniProt O14793 267-375). The assay is described as follows: Octet BLI, IgG, avid.
In a further assay the target is T6, Human GDF10 (human, UniProt P55107 369-478).
T6 sequence (looked up): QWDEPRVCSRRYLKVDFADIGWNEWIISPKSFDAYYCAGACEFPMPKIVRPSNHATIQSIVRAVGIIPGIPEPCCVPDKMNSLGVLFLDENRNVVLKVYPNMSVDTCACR
The assay is described as follows: Octet BLI, IgG, avid.

A further assay has as its target T7, BMP10 (UniProt O95393 317-424).
T7 sequence (looked up): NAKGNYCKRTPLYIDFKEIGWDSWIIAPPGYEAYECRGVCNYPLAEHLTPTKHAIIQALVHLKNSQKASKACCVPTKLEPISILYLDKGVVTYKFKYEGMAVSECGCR
The assay is described as follows: Octet BLI, IgG, avid.

Assay [3] has as its target T8, Activin A (ligand of the Activin 2B Receptor/SMAD reporter assay) (UniProt P08476 311-426).
T8 sequence (looked up): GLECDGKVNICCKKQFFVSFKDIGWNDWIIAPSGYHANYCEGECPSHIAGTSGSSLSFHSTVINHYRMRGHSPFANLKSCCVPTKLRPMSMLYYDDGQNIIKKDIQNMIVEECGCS
The assay is described as follows: cell-based or functional assay.

The source of these data is US20260265358A1 (BYOMASS, published 2026).

B1: anti-Activin A antibody Clone C (IgG) (antibody, V domains shown)
VH: QVQLVQSGAEVKKPGASVKVSCKASGYTFPGYHMHWVRQAPGQGLEWMGVINPSSGDTNYAQKFQGRVTMTRDTSISTAYMELSRLRSDDTAVYYCARARDIAALGLGAFDYWGQGTLVTVSS
VL: EIVLTQSPGTLSLSPGERATLSCRASQSVSSSYLAWYQQKPGQAPRLLIYGASSRAGGIPDRFSGSGSGTDFTLTISRLEPEDFAVYYCQQYVAYPRTFGGGTKVEIKR
notes: IgG format
In general, Kd refers to a measure of binding affinity in units of concentration. The low end stands for a tighter complex, the high end for a looser complex. As for B1, the Kd with Human Activin A Fc amounted to 0.477 nM; with Activin B [2], 148 nM; with Human GDF11 it was 12.7 nM. The “Activin B-ActRIIB SMAD IC50 pM” value with Activin B [1] is greater than 100000 pM. Further, the binding result with GDF15 Fc, with Human GDNF, with BMP9, with Human GDF8, with Human GDF10 and in the assay with BMP10 was “no binding (tested: 100 nM antigen)” in each case.

B2: anti-Activin A antibody Clone D (IgG) (antibody, V domains shown)
VH: QVQLVQSGAEVKKPGASVKVSCKASGYTFFGYSMHWVRQAPGQGLEWMGVINPSSGDTNYAQKFQGRVTMTRDTSISTAYMELSRLRSDDTAVYYCARARDIAALGLGAFDYWGQGTLVTVSS
VL: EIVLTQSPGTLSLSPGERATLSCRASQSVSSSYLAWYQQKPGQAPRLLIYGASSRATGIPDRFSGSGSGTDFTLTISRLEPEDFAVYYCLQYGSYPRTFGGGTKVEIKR
notes: IgG format; also called Antibody D
As to B2, the results for the Kd in the assay with Human Activin A Fc, with Activin B [2] and with Human GDF11 were 0.515 nM, 153 nM and 23.4 nM, respectively. In addition, the binding result with GDF15 Fc, with Human GDNF, with BMP9, in the assay with Human GDF8, with Human GDF10 and with BMP10 was “no binding (tested: 100 nM antigen)” each time.

B3: anti-Activin A antibody Clone J (IgG) (antibody, V domains shown)
VH: EVQLVQSGAEVKKPGSSVKVSCKASGGTFSLYAISWVRQAPGQGLEWMGGIIPYFGTANYAQKFQGRVTITADESTSTAYMELSSLRSEDTAVYYCARGGSGYSTSWGSSLYWGQGTLVTVSS
VL: EIVLTQSPGTLSLSPGERATLSCRASQSVSSSYLAWYQQKPGQAPRLLIYGAFSRATGIPDRFSGSGSGTDFTLTISRLEPEDFAVYYCQQSGVFPYTFGGGTKVEIKR
As to B3, the “Activin A-ActRIIB SMAD IC50 pM” value in [3] turned out to be 41.7 pM.

B4: anti-Activin A antibody Clone M (IgG) (antibody, V domains shown)
VH: QLQLQESGPGLVKPSETLSLTCTVSGGSISSSDYYWGWIRQPPGKGLEWIGSIYYPANTYYNPSLKSRVTISVDTSKNQFSLKLSSVTAADTAVYYCARGYWNYGMDVWGQGTTVTVSS
VL: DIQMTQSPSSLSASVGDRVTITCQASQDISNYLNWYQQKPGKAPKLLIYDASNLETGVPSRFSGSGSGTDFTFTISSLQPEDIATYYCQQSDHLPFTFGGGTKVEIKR
notes: IgG format; also called Antibody M
For B4, the Kd is 1 nM with Human Activin A Fc and 9.58 nM in the assay with Activin B [2]. Moreover, the binding result with Human GDF11, with GDF15 Fc, with Human GDNF, with BMP9, with Human GDF8 and in the assay with Human GDF10 was “no binding (tested: 100 nM antigen)” throughout. The binding result in the assay with BMP10 is recorded as “no binding (tested: 100 nM antigen)”. Also, in [3], the “Activin A-ActRIIB SMAD IC50 pM” value is 719 pM.

B5: anti-Activin A antibody Clone N (IgG) (antibody, V domains shown)
VH: QLQLQESGPGLVKPSETLSLTCTVSGGSISSSDYYWGWIRQPPGKGLEWIGSIYYPASTYYNPSLKSRVTISVDTSKNQFSLKLSSVTAADTAVYYCARGYWNYGMDVWGQGTTVTVSS
VL: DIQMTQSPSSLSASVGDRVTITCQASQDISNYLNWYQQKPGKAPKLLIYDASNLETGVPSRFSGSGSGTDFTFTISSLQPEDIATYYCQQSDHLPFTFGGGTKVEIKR
notes: IgG format; also called Antibody N
Regarding B5, the equilibrium dissociation constant (Kd) amounted to 1.26 nM with Human Activin A Fc and 6.98 nM with Activin B [2]. Moreover, the binding result with Human GDF11, with GDF15 Fc, in the assay with Human GDNF, with BMP9, with Human GDF8 and with Human GDF10 was “no binding (tested: 100 nM antigen)” each time. Moreover, the binding result with BMP10 is “no binding (tested: 100 nM antigen)”. The “Activin A-ActRIIB SMAD IC50 pM” value in assay [3] worked out at 241 pM.

B6: anti-Activin A antibody Clone R (IgG) (antibody, V domains shown)
VH: QVQLVQSGAEVKKPGSSVKVSCKASGGSFSPYTISWVRQAPGQGLEWMGGIILTSGTANYAQKFQGRVTITADESTSTAYMELSSLRSEDTAVYYCARGGPLSGWRASYYYWGQGTLVTVSS
VL: not shown
notes: IgG format; also called Antibody R
Molecule B6 showed a dissociation constant Kd with Human Activin A Fc of 0.6 nM. Moreover, the binding result with Activin B [2], with Human GDF11, with GDF15 Fc, with Human GDNF, in the assay with BMP9 and in the assay with Human GDF8 was “no binding (tested: 100 nM antigen)” throughout. Also, the binding result in the assay with Human GDF10 and with BMP10 was “no binding (tested: 100 nM antigen)” in each case.

B7: anti-Activin A antibody Clone O (IgG) (antibody, V domains shown)
VH: QVQLVQSGAEVKKPGSSVKVSCKASGGTFSNYDINWVRQAPGQGLEWMGGIIPVFGTAAYAQKFQGRVTITADESTSTAYMELSSLRSEDTAVYYCAREARDGYRYAFQHWGQGTLVTVSS
VL: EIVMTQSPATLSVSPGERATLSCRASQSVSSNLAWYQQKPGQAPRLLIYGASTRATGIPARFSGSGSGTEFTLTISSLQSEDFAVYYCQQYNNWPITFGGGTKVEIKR
notes: IgG format; also called Antibody O
In the case of B7, in the assay with Human Activin A Fc, the affinity, expressed as Kd, was 0.442 nM. Besides, the binding result with Activin B [2], in the assay with Human GDF11, with GDF15 Fc, with Human GDNF, with BMP9 and in the assay with Human GDF8 was “no binding (tested: 100 nM antigen)” throughout. Further, the binding result in the assay with Human GDF10 and with BMP10 was “no binding (tested: 100 nM antigen)” each time. For the same molecule, in assay [3], the “Activin A-ActRIIB SMAD IC50 pM” value is 5400 pM.

B8: anti-Activin A antibody Clone P (IgG) (antibody, V domains shown)
VH: QVQLVQSGAEVKKPGSSVKVSCKASGGTFDDYAISWVRQAPGQGLEWMGGIIPRFGIANYAQKFQGRVTITADESTSTAYMELSSLRSEDTAVYYCARPPSSGSDWGQGTLVTVSS
VL: DIQMTQSPSSVSASVGDRVTITCRASQGIDSWLAWYQQKPGKAPKLLIYAASSLQSGVPSRFSGSGSGTDFTLTISSLQPEDFATYYCQQVHSFPITFGGGTKVEIKR
notes: IgG format; also called Antibody P
With B8, the affinity with Human Activin A Fc, expressed as Kd, was 1.28 nM. For the same molecule, the binding result in the assay with Human GDF11, with GDF15 Fc, with Human GDNF, in the assay with BMP9, with Human GDF8 and with Human GDF10 was “no binding (tested: 100 nM antigen)” throughout. Besides, the binding result in the assay with BMP10 is reported as “no binding (tested: 100 nM antigen)”.
